This test addresses complement C1q, P02745;P02746;P02747. Kind of test: MST. Conditions: chain shown with the change.

B1: truncated Trichinella spiralis calreticulin TsCRT^Δ (22-209, GSG linker, 305-364) W323A; V325A (protein)
chain: MGSSHHHHHHSSGENLYFQGGSEPTIYLKETFDDGDAWKERWVQSKHKDDYGEWQLSHGKLFADENDMGLKTMQDARFYSLSRKFDKVVDNKDKPLVIVYTVKHEQDIDCGGGYIKLMLENTDLEDFNSDTPYRIMFGPDICGPEKRAVHSILWHDGKNYEKRKNAIAMADIFTHAYKLIIFPNNSYEIWVNNDKEAYGRLEDDWTMTEPGSGPVPELYRYKGLGAIGFELAQAKSGTIFDNILITDDPEYAKEFIDKQLEALRPIEKVESDK
A word on the Kd: it is a measure of binding affinity in units of concentration. High values mean lower affinity, low ones higher affinity. In the case of B1, the dissociation constant (Kd) came to 22.9 µM.

B2: truncated Trichinella spiralis calreticulin TsCRT^Δ (22-209, GSG linker, 305-364) D139A; H149A (protein)
chain: EPTIYLKETFDDGDAWKERWVQSKHKDDYGEWQLSHGKLFADENDMGLKTMQDARFYSLSRKFDKVVDNKDKPLVIVYTVKHEQDIDCGGGYIKLMLENTDLEDFNSDTPYRIMFGPAICGPEKRAVASILWHDGKNYEKRKNAIAMADIFTHAYKLIIFPNNSYEIWVNNDKEAYGRLEDDWTMTEPGSGPVPELYRYKGLGAIGFELWQVKSGTIFDNILITDDPEYAKEFIDKQLEALRPIEKVESDK
For the molecule B2, the Kd was 19 µM. The Kd values of the last two molecules are within 1.5-fold of each other.

B3: truncated Trichinella spiralis calreticulin TsCRT^Δ (22-209, GSG linker, 305-364) M135A; I151A (protein)
chain: EPTIYLKETFDDGDAWKERWVQSKHKDDYGEWQLSHGKLFADENDMGLKTMQDARFYSLSRKFDKVVDNKDKPLVIVYTVKHEQDIDCGGGYIKLMLENTDLEDFNSDTPYRIAFGPDICGPEKRAVHSALWHDGKNYEKRKNAIAMADIFTHAYKLIIFPNNSYEIWVNNDKEAYGRLEDDWTMTEPGSGPVPELYRYKGLGAIGFELWQVKSGTIFDNILITDDPEYAKEFIDKQLEALRPIEKVESDK
Turning to B3, the Kd came out at 5.99 µM.

B4: truncated Trichinella spiralis calreticulin TsCRT^Δ (22-209, GSG linker, 305-364) C141A; K145A (protein)
chain: EPTIYLKETFDDGDAWKERWVQSKHKDDYGEWQLSHGKLFADENDMGLKTMQDARFYSLSRKFDKVVDNKDKPLVIVYTVKHEQDIDCGGGYIKLMLENTDLEDFNSDTPYRIMFGPDIAGPEARAVHSILWHDGKNYEKRKNAIAMADIFTHAYKLIIFPNNSYEIWVNNDKEAYGRLEDDWTMTEPGSGPVPELYRYKGLGAIGFELWQVKSGTIFDNILITDDPEYAKEFIDKQLEALRPIEKVESDK
With B4, the Kd came out at 34.8 µM.

(Values after paper PMC11059001.)
